According to the DeepSol protein solubility set:

Test: soluble on expression in E. coli; label from the status in PepcDB or PDB records

Sequence: MKKWRFLGIDDSFDDRKCCVVGCVTCGGYVEGFLYTEIDIDGLDATDKLISMVRRSKFREQIKCIFLPGITLGGFNLVDIQRVYRETKIPVVVVMRRKPDMEEFDSAMRNLENYELRRKIVEVAGEIHRIGDIYIQTAGLTPSEAEKLVKASLIKGNMPEPVRISHLVASAIIHGESRGKA
- soluble on expression in E. coli: soluble

Sequence: MHHIETTKLSRRAFLKKLTRTSFSAALMMAAASGYARWIEPAELTVTHHALSHPLIPKSFAGVKLLQFSDLHLGHYYGLERFYRIMGRINELGPDLVVFTGDLLHEANRYPHVDAVAEALAGVRAPLGKFCIYGNHDHGGYGTDIYRRLMERAGFRVLVNEHALVRRGHGAIAIAGSDDMMLGRPDWSKMTNGIPRATYTIALVHEPDGAIEARRFPIHVQLSGHSHGGQIQLPFIGPLITPPLSERYYEGFYHVGGLLLYVNRGLGTTRVPLRFFAPPELTVFSLAPG
- soluble on expression in E. coli: not soluble

Sequence: MSEKLQVVTLLGSLRKGSFNGMVARTLPKIAPASMEVNALPSIADIPLYDADVQQEEGFPATVEALAEQIRQADGVVIVTPEYNYSVPGGLKNAIDWLSRLPDQPLAGKPVLIQTSSMGVIGGARCQYHLRQILVFLDAMVMNKPEFMGGVIQNKVDPQTGEVIDQGTLDHLTGQLTAFGEFIQRVKI
- soluble on expression in E. coli: not soluble

Sequence: MAARNAGTARPGGPNRTCQFKLVLLGESAVGKSSLVLRFVKGQFHEYQESTIGAAFLTQTVCLDDATIKFEIWDTAGQERYHSLAPMYYRGAQAAIVVYDITNQESFQKAKNWVKELQRQASPNIVMALAGNKADVANKRTVEYEEANAYAEDNALLFMETSAKTSMNVNDIFMAIAKKLPIGPAQGEPTGTVDMNQPQQQQKGSCCK
- soluble on expression in E. coli: not soluble

Sequence: MGSDKIHHHHHHANAAKKDDAKFKPAADRDGPRWRTGIEGQRIADLGDGRFLNPVLSGDYPDPSVLKDGDDYYMTHSSFDSAPGLLIWHSRDLVNWRPLGPALAKPLGTVFAVDIAKHDGRYFIYIPFMKAPWSTDLPSFANTFVIHAPSMEGPWSDPIDLKVGGLIDPGHVVGEDGHRYLFFNDGKRVRLTADGLATDGPVETAYQAWRYPDDWITEAYSPEGPKLFRRGDYFYLVNAVGGTSGPATGHMIVAARSRSIHGPWENCPHNPIQRTHSRQEMWWSRGHATCVEGPGGQWYMVYHGYENGYHTLGRQTLVEPIEWTPDGWFRATGGDLSEPLRKPRGPAQPHGMAHSDSFHTDRLGTLWNLYGSAPAETARIAIGDGALTLKAKGKGPSDGVVLTQQVGDRSYEVSVELELTDKTSGGLLLFFDDRLFLGMGIDGHRMTTWRGGKASYWPEPAPPARRIFMRITNQEQVVTFYYSLDGKNWTRHGVRSEVTGYNANTVDNLLSLRPALYAAGEGEVLFRNFTYRALA
- soluble on expression in E. coli: not soluble

Sequence: MEKTPAETTAVSAGNVPRDSIPCITNVSADTRGRTRPSRPATVPQRRPARIGHFRRRSASLSFLDWPDGSVTEGVRTTSASVAASAARFDEIRRRRQSINDEMKERTLEDALAVELVNETFRCSVTSDARKDLQKLVRRVSGTVLRLSWPNGWFFTYCDLLRVGYFGHLNIKGLEKTFLCCDKFLPGLEHHHHHH
- soluble on expression in E. coli: not soluble

Sequence: MGSDKIHHHHHHMEKYSAESIKVLKGLEPVRMRPGMYIGSTGKRGLHHLVYEVVDNSVDEALAGYCDWIRVTLHEDGSVEVEDNGRGIPVDIHPEEGRSALEVVFTVLHAGGKFSKDSYKISGGLHGVGVSVVNALSEWLEVRVHRDGKIYRQRYERGKPVTPVEVIGETDKHGTIVRFKPDPLIFSETEFDPDILEHRLREIAFLVPGLKIEFEDRINGEKKTFKFDGGIVEYVKYLNRGKKALHDVIHIKRTEKVKTKNGEDEVIVEIAFQYTDSYSEDIVSFANTIKTVDGGTHVTAFKSTLTRLMNEYGKKHNFLKKDDSFQGEDVREGLTAVISVYVKNPEFEGQTKSKLGNEEVKEAVTKAMREELKKIFDANPELVKTILSKIMSTKQAREAAKRAREMVRRKNVLQNTTLPGKLADCSSTHREKTELFIVEGDSAGGSAKQARDREFQAVLPIRGKILNVEKSSLDRLLKNEQISDIIVAVGTGIGDDFDESKLRYGRIIIMTDADIDGAHIRTLLLTLFYRYMRPLIEQGRVYIALPPLYRIKAGREEFYVYSDQELAEYKEKLQGKRIEIQRYKGLGEMNPEQLWETTMNPETRKIIRVTIEDAEEADRLFEILMGNDPSSRREFIERHALKVKELDI
- soluble on expression in E. coli: not soluble

Sequence: MQQVFNVSVPVPDDVVIISKEEYLNLLSDNEQGKWWDIDNLQELLGIGRSKLINDILLNPDIKKEVDLSINPNGFIVYPKGKGSRYKILATKARKYFEDNFGS
- soluble on expression in E. coli: not soluble

Sequence: MGSDKIHHHHHHMSQQQPPAPVEGYQDMVHAAESQFDREQFKQLLMDMVNIPSPTGEEAELARYMADHMTANGLQGQTQYLDDQQANAIGKLPSRSKQGPELLLYASFDTHLGGSDEEERWAGQPLPSMLRPQARLEGDEISGLGAENPKAYAACVTTAATCIAKAGLELPGELTVGLGAGGMTALSRPGFSRRNIGHGAGVMFMLQRGYRPDYCVMCKPVYAVAWEEVGICNFTIRVKGAMGYVGVRHMMPQDQNPFPQVAKVIEALEAWFPTYTARHTSGLVAPQGGISAIEGGWPHKPIITTADVVLHVDIRPSPRTDPVQVKRELQAMLTELSQQHPDVVTELEATLAIPGATTSPDNWIIQSMIRAWEDVEQTPHEPFLNMSGYTDLSVIRQWGVPAARLGVPFRHQEPDPEDSLPMNRVHLDDCYRLIQVLIRSAIDTCSRPIEITQQYQ
- soluble on expression in E. coli: not soluble

Sequence: MNVLFLSISLGSGHIRAAEALQKFVVQKYPKSKTLIVDTFKYINPLIHTVVVDGYLNIVKYVPEIYGGLYRMSEHIKNIDRMSRGFSNLLTPKIHRLIQSFKPSIIVCTHPFPLQMIAHLKKHYNLDVPSIAIVTDFVNHPFWFQNNIEAYIVAHDYIKRDMIECGISEDRIFTYGLPVAPEFLKSIPKEQARKELSLENTLTVLLMGGSLGIGDIENTFKSFAKCKRDIQIIAVAGKNTALKKRLDSLAASFPMPVKIFGYTDSIPMLMDASDFIVTKPGAMTISEALVKRLPALIISPIPGQEERNEQFLVNSGTAVRIYKNTKIDSVLCQVYDNKLRYKQMKEIAGNLANPDSGRNILSLIEKLVNDNEKGLFKYSFNAF
- soluble on expression in E. coli: soluble

Sequence: MRLEDEIKQVKAFKNDYNKAVVNLIFTYNWLESSSKAFFKDFDLTSQQFNILRILKGQHPNPSTINLLRDRMLDKMCDASRLVERLRIKGLVERSQASSDKRAVDIFITKKGEELLAKIEVEFPAFEEKLHTLSAEEIVVFNNLLDKLRG
- soluble on expression in E. coli: not soluble

Sequence: MLCSMGTLFQRLSSLDGKGYGAYKSIAGRHALEGVPGAELFLDKVQSDPYAPASLSRVRVPLAALPFSGSLSTHQRDLLNRRIAGEFCHGLAIDCPGQQVLSRAAVTQLDDALQICFEVQLPARGRRIRGREAAQLLCTTLSRALDRALCITAGGDALRAELEAAAELERDQAALR
- soluble on expression in E. coli: not soluble

Sequence: MSLGLSFFSKHLPIQEGQPWALKTPADIISTVEFNHTGELLATGDKGGRVVIFQREPESKNAPHSQGEYDVYSTFQSHEPEFDYLKSLEIEEKINKIKWLPQQNAAHSLLSTNDKTIKLWKITERDKRPEGYNLKDEEGKLKDLSTVTSLQVPVLKPMDLMVEVSPRRIFANGHTYHINSISVNSDCETYMSADDLRINLWHLAITDRSFNIVDIKPANMEDLTEVITASEFHPHHCNLFVYSSSKGSLRLCDMRAAALCDKHSKLFEEPEDPSNRSFFSEIISSVSDVKFSHSGRYMLTRDYLTVKVWDLNMEARPIETYQVHDYLRSKLCSLYENDCIFDKFECAWNGSDSVIMTGAYNNFFRMFDRNTKRDVTLEASRESSKPRAVLKPRRVCVGGKRRRDDISVDSLDFTKKILHTAWHPAENIIAIAATNNLYIFQDKVNSDMHEGHHHHHH
- soluble on expression in E. coli: not soluble

Sequence: MKPSSPSRSKGHAKARRKTREELNQEARDRKRQKKRRGHAPGSRAAGGNNTSGSKGQNAPKDPRIGSKTPIPLGVTEKVTKQHKPKSEKPMLSPQAELELLETDERLDALLERLEAGETLSAEEQSWVDAKLDRIDELMQKLGLSYDDDEEEEEDEKQEDMMRLLRGN
- soluble on expression in E. coli: not soluble

Sequence: MPTLSSNLKHLRLLLGRSQGEFAEQLGIAQSTLSSVERENRPPSTKLINTARFQTGVSAEYFEASIHFYAAPDLLFRSAREGRANADKIAAAFSIAEHYLRERYPDVTSDLPTIPIADLEGELSLRMLEEFASQTRDHFGIDQDSMIPNLTTVLNNHGILVTSLPDYVVEGTNFDGVSTPTDSTLRIIALNQQRSGDRYRFSLAHELAHLILHANTLRSDKSQMEKEANIFAASFLMPRALLTPVITPELTLKDYAELKAQWGYSIQAIVRRAHELELIDYKRYRSLRMQIAGRGWNINEPVDVLLENVYIDPIDLLSNNIKKHQSTNEGLATVTSLHKQ
- soluble on expression in E. coli: not soluble

Sequence: MQATLIKPTIFTHQPILEKLFKSQSMTQEESHQLFAAIVRGELEDSQLAAALISMKMRGERPEEIAGAASALLADAQPFPRPDYDFADIVGTGGDGTNSINISTASAFVAASCGAKVAKHGNRSVCQPLAGSCDLLQAFGIRLDMSAEDSRQALDDLNVCFLFAPQYHTGFRHAMPVRQQLKTRTIFNVLGPLINPARPPKALIGVYSPELVLPIAQALKVLGYKNAAVVHGGGMDEVAIHTPTQVAELNNGEIESYQLSPQDFGLQSYSLNALQGGTPEENRDILARLLQGKGDAAHARQVAANVALLLKLFGQDNLRHNAQLALETIRSGTAFERVTALAARG
- soluble on expression in E. coli: soluble

Sequence: MHCAENCIFCKIIAGDIPSAKVYEDEHVLAFLDISQVTKGHTLVIPKTHIENVYEFTDELAKQYFHAVPKIARAIRDEFEPIGLNTLNNNGEKAGQSVFHYHMHIIPRYGKGDGFGAVWKTHADDYKPEDLQNISSSIAKRLASS
- soluble on expression in E. coli: soluble

Sequence: SAGVRGLRFVERFGDNTASLIKNAILLDQQKVEVFNIRFKSSRDFTIQIKLNAKGNYKKSEVEKYKSQIGVQDNELGDKEEGTLEADLIFTYTPPASNLFSKSNFDKLTKSINFNTNLKLEMVGKDEVMRKILNSSAFTNNLASVNYPNQAVNLLPYVLYSIL
- soluble on expression in E. coli: not soluble

Sequence: MIVNEINSSEEVLQIEQIDVEGQRAEYNRIQQERQDYQYAMRFAVHVDQVAVQALPIPAQSPEHLVAEHSNAQVPVDARPNPPTQSPAPRAAPDHGPVQAPRNLAQALNLPRRARGRPRRSDVRRTRDAQDSVATQQGPNAEQSGILVPPASRQQPEHSATSTISAPLSPASSTNMALQNAPSDHGDQLIRDSSEDRQNVPAPRRSARIASHTQYRTSPYVSARQGHRLAIARGRAAPGTLDPSASRQSIPSTSDAPVLVPHAPPAPPSPTLQDCVICMEEPVNPKVCPKCLKMIGCAKCFRWWTVFRCWWQSSLNPSCPLCRLKWDSAPKVIAAKKFYDGK
- soluble on expression in E. coli: not soluble

Sequence: MKRASVWMLLCLFFMLSGCANPSFPPVVDSLSVVISLDVKAETVTFLNAKNGSKIARWNINEPFQGGALSPDGRTLLLYGRDLDRVYRYDLAGGKPLSEWKTGNGIVSAAPSPDGRTWFFGDSTHHAVRVVSRGGKEIARLSVGRSPMTLLVNRQGTELYAIDFQDGRAFVIDASRLRVIRSFSVPKFALGGLMRERRGELWVGGHGSGNKVEKNIHVYSLRDGRLLRTIAAPVMPVDFVETGRGVFVLSHGSNTVYQFLPSGKRLNSVLVGANPFAMEAAGSRLYIASYDSDEIIVVDEATLRPLARWKTGDGPLQLFIREGRT
- soluble on expression in E. coli: not soluble

Sequence: MTDSTPQGSTPGMSPEAILNGTGKPWEEWLKLLDDVKATSWTHTHIAKHIVDNFDVSGWWAQGIAIGYEYERGMRKPGMTSDGFAANASKTLNLPVEKVWKLFGDDDLRAQWLDPALIEKTSASEPRTFNAKWLADDSRVSVNFTSKGDNKSSFGIQHRRLPDQDSIPVMKAFWKERIAALVEVSKQFSLLEHHHHHH
- soluble on expression in E. coli: soluble

Sequence: GPGSMEQPKGINILITGTPGTGKTSMAEMIAAELDGFQHLEVGKLVKENHFYTEYDTELDTHIIEEKDEDRLLDFMEPIMVSRGNHVVDYHSSELFPERWFHMVVVLHTSTEVLFERLTKRQYSEAKRAENMEAEIQCICEEEARDAYEDDIVLVRENDTLEQMAATVEEIRERVEVLKVERGL
- soluble on expression in E. coli: soluble
